Experimental data published in patent US20240307538A1.
Values belong to the substance of their own block, whether it stands above or below them.

Legend:
[1] = target: Fc gamma macrophage receptors; assay: flow cytometry on human macrophages, hybrid 5 µg/ml, 20 h at 37°C, anti-Fc-FITC
[2] = target: Fc gamma macrophage receptors; assay: flow cytometry on human macrophages, hybrid 5 µg/ml, 2 h at 37°C, anti-Fc-FITC
[3] = target: Fc gamma macrophage receptors; assay: cell-based or functional assay
[4] = target: Fc gamma receptors of NK cells; assay: cell-based or functional assay
[5] = target: Fc gamma receptors of NK cells; assay: cytofluorimetry on NK cells, 30 min at 37°C
[6] = target: Fc gamma receptors of NK cells; assay: cytofluorimetry on NK cells, 48 h at 37°C
[7] = target: Fc gamma receptors of NK cells; assay: cytofluorimetry on NK cells, 24 h at 37°C
[8] = target: Fc gamma receptors of NK cells; assay: cytofluorimetry on NK cells, labelled Fc 10 µg/ml, 30 min at 37°C, no IgG
[9] = target: Fc gamma receptors of NK cells; assay: competition, cytofluorimetry on NK cells: labelled FcSDHFSTIE-N3-DBCO-A647 10 µg/ml with human IgG 1 µg/ml; ratio to NEG
[10] = target: Fc gamma receptors of NK cells; assay: competition, cytofluorimetry on NK cells: labelled FcSDHFSTIE-N3-DBCO-A647 10 µg/ml with human IgG 10 µg/ml
[11] = target: Fc gamma receptors of NK cells; assay: competition, cytofluorimetry on NK cells: labelled FcSDHFSTIE-N3-DBCO-A647 10 µg/ml with human IgG 1000 µg/ml
[12] = target: Fc gamma receptors of NK cells; assay: competition, cytofluorimetry on NK cells: labelled FcSDHFSTIE-N3-DBCO-A647 10 µg/ml with human IgG 10000 µg/ml
[13] = target: Fc gamma receptors of NK cells; assay: competition, cytofluorimetry on NK cells: labelled FcSDHFSTIE-N3-DBCO-A647 10 µg/ml with human IgG 100 µg/ml
[14] = target: Fc gamma receptors of NK cells; assay: competition, cytofluorimetry on NK cells: labelled FcSDHFSTIE-N3-DBCO-A647 10 µg/ml with human IgG 10000 µg/ml; ratio to NEG
[15] = target: Fc gamma receptors of NK cells; assay: competition, cytofluorimetry on NK cells: labelled FcSDHFSTIE-N3-DBCO-A647 10 µg/ml with human IgG 10 µg/ml; ratio to NEG
[16] = target: Fc gamma receptors of NK cells; assay: competition, cytofluorimetry on NK cells: labelled FcSDHFSTIE-N3-DBCO-A647 10 µg/ml with human IgG 100 µg/ml; ratio to NEG
[17] = target: Fc gamma receptors of NK cells; assay: competition, cytofluorimetry on NK cells: labelled FcSDHFSTIE-N3-DBCO-A647 10 µg/ml with human IgG 1000 µg/ml; ratio to NEG
[18] = target: Fc gamma receptors of NK cells; assay: competition, cytofluorimetry on NK cells: labelled FcSDHFSTIE-N3-DBCO-A647 10 µg/ml with human IgG 1 µg/ml

Substance: Fc-LALA-β60-74cit (from UniProt P01857 104-330) (Fc fusion)
Macrophages (fluorescence by cytofluorimetry) [1]: 404
Macrophages (fluorescence by cytofluorimetry) [2]: 502

Substance: Fc-WT-PEG-β60-74cit (from UniProt P01857 104-330) (Fc fusion)
% expression of CD107a (NK cell degranulation) [4]: 1.8%

Substance: FcLALAPG-β60-74 (from UniProt P01857 104-330) (Fc fusion)
% expression of CD107a (NK cell degranulation) [4]: 2.2%

Substance: FcSDHFSTIE-N3-DBCO-A647 (from UniProt P01857 104-330)
MFI [8]: 38500

Continued, values first:

inhibition of phagocytosis by competing human IgG at 10 mg/ml [3]: 50%
Substance: Fc-WT-PEG-α621-635cit (from UniProt P01857 104-330) (Fc fusion)

Macrophages (fluorescence by cytofluorimetry) [1]: 1000
Macrophages (fluorescence by cytofluorimetry) [2]: 808
Substance: Fc-WT-β60-74cit (from UniProt P01857 104-330) (Fc fusion)

MFI [5]: 2970
MFI [6]: 1710
MFI [7]: 2350
Substance: FcSDHFSTIE-N3-DBCO-A488 (from UniProt P01857 104-330)

MFI [5]: 4590
MFI [6]: 4340
MFI [7]: 4090
Substance: FcSDHFSTIE-N3-DBCO-PEG3-β60-74cit-lysineA488 (from UniProt P01857 104-330) (Fc fusion)

RATIO of FcSDHFSTIE-N3-DBCO-A647 with IgG as competitor [9]: 179
MFI of FcSDHFSTIE-N3-DBCO-A647 with IgG as competitor [10]: 38800
MFI of FcSDHFSTIE-N3-DBCO-A647 with IgG as competitor [11]: 29500
MFI of FcSDHFSTIE-N3-DBCO-A647 with IgG as competitor [12]: 20500
MFI of FcSDHFSTIE-N3-DBCO-A647 with IgG as competitor [13]: 36300
RATIO of FcSDHFSTIE-N3-DBCO-A647 with IgG as competitor [14]: 96.6
RATIO of FcSDHFSTIE-N3-DBCO-A647 with IgG as competitor [15]: 183
RATIO of FcSDHFSTIE-N3-DBCO-A647 with IgG as competitor [16]: 171
RATIO of FcSDHFSTIE-N3-DBCO-A647 with IgG as competitor [17]: 139
MFI of FcSDHFSTIE-N3-DBCO-A647 with IgG as competitor [18]: 37900
Substance: human IgG (antibody)
